Data: patent publication US5846747A, “Method for detecting glucagon-like peptide-1 antagonists and agonists” (Novo Nordisk A/S, priority 1993, dated 1998)

Target: T1, rat GLP-1 receptor (Rattus norvegicus, UniProt P32301)
T1 construct: expressed in transfected cells; host or cells: COS cells
T1 sequence (P32301 22-463): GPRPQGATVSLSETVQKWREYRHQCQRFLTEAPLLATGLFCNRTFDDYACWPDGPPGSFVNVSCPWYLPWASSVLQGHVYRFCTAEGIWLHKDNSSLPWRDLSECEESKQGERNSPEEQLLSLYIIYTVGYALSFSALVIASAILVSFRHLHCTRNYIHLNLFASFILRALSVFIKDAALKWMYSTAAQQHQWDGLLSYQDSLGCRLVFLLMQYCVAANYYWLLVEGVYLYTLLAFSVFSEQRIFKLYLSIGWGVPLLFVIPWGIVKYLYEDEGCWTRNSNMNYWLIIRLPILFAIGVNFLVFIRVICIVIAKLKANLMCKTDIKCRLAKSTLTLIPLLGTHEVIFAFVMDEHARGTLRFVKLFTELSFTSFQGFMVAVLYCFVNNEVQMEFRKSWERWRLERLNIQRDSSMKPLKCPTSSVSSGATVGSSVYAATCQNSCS
Assay: Displacement of 125I-GLP-1 binding to COS cells transfected with the rat GLP-1 receptor cDNA
Details: 20 pM 125I-GLP-1, increasing concentrations of cold peptide

Displacement of GLP-1 binding (in words), did not displace binding:
vasoactive intestinal peptide [VIP], secreting: peptide hormone of related structure (probably secretin), gastric inhibitory peptide [GIP]
